B1: OATP1B1: tunicamycin 0.5 μg/ml, 42 h (protein)
parent chain: MDQNQHLNKTAEAQPSENKKTRYCNGLKMFLAALSLSFIAKTLGAIIMKSSIIHIERRFEISSSLVGFIDGSFEIGNLLVIVFVSYFGSKLHRPKLIGIGCFIMGIGGVLTALPHFFMGYYRYSKETNINSSENSTSTLSTCLINQILSLNRASPEIVGKGCLKESGSYMWIYVFMGNMLRGIGETPIVPLGLSYIDDFAKEGHSSLYLGILNAIAMIGPIIGFTLGSLFSKMYVDIGYVDLSTIRITPTDSRWVGAWWLNFLVSGLFSIISSIPFFFLPQTPNKPQKERKASLSLHVLETNDEKDQTANLTNQGKNITKNVTGFFQSFKSILTNPLYVMFVLLTLLQVSSYIGAFTYVFKYVEQQYGQPSSKANILLGVITIPIFASGMFLGGYIIKKFKLNTVGIAKFSCFTAVMSLSFYLLYFFILCENKSVAGLTMTYDGNNPVTSHRDVPLSYCNSDCNCDESQWEPVCGNNGITYISPCLAGCKSSSGNKKPIVFYNCSCLEVTGLQNRNYSAHLGECPRDDACTRKFYFFVAIQVLNLFFSALGGTSHVMLIVKIVQPELKSLALGFHSMVIRALGGILAPIYFGALIDTTCIKWSTNNCGTRGSCRTYNSTSFSRVYLGLSSMLRVSSLVLYIILIYAMKKKYQEKDINASENGSVMDEANLESLNKNKHFVPSAGADSETHC
B2: OATP1B1: N134/503Q (protein)
parent chain: B1 parent chain
B3: OATP1B1: N134/516Q (protein)
parent chain: B1 parent chain
B4: OATP1B1: N516Q (protein)
parent chain: B1 parent chain
B5: OATP1B1: N134/432Q (protein)
parent chain: B1 parent chain
B6: OATP1B1: N134Q (protein)
parent chain: B1 parent chain
B7: OATP1B1: N503Q (protein)
parent chain: B1 parent chain
B8: OATP1B1: N134/617Q (protein)
parent chain: B1 parent chain
B9: OATP1B1: N134/503/516Q (protein)
parent chain: B1 parent chain

One data set can be described thus: cell lysate anti-HA Western blot. The settings on record: glycan lost; control: untreated. (Immunoblotting shows a protein as a band on a membrane.)
Consider B1, for which the expression_or_secretion entry was “decreases”.

The nature of a further data set: 0.1 μM E-3-S uptake, 2 min, HEK293. As to conditions: glycan lost; control: wild type.
Take B2: the “other: transport activity” value was “no change”.
On the same count and under the same terms, the result for B3 reads “no change”; that for B4, “no change”; that for B5, “no change”.
The same measure, in the same setting: the result for B6 reads “no change”.
On the same count and under the same terms, with B7 the entry was “no change”; with B8, “no change”.

Another data set is described as follows: total cell lysate anti-HA Western blot. As to conditions: glycan lost; control: wild type.
On to B9, for which the expression_or_secretion entry is “decreases”.

The next data set can be described thus: cell surface biotinylation, anti-HA Western blot. As to conditions: glycan lost; control: wild type.
On to B9, for which the “expression_or_secretion, percent_of_wt” value is given as “decreases”.
As to B2, the “expression_or_secretion, percent_of_wt” value is given as “no change”.
Same read-out and setting: the result for B3 reads “no change”; that for B4, “no change”; that for B5, “no change”.
The same measure, in the same setting: the result for B6 reads “no change”.
Same read-out and setting: the result for B7 reads “no change”; that for B8, “no change”.

The nature of a further data set: confocal immunofluorescence, colocalisation with calnexin. As to conditions: glycan lost; control: wild type.
For B9, the localisation_or_trafficking entry was “changes”.

Values taken from publication PMC3527552.
